In US20230235004A1 (published 2023):
Positions count from the first letter of the chain named.

T1: mouse MAdCAM expressed on cells (mouse, UniProt Q61826 22-405)
T1 construct: whole, on cells
T1 sequence (looked up): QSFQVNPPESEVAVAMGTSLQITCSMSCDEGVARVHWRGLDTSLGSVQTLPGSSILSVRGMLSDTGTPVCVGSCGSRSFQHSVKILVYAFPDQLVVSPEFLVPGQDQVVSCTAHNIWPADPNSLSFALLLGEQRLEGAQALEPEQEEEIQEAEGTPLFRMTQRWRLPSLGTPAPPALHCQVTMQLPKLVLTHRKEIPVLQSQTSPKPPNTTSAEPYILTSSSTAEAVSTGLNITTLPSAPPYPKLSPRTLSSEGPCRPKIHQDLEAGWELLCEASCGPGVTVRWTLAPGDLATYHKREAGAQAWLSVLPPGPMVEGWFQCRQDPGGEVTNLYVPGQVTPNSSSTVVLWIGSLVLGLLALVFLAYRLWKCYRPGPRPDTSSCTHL

T2: human MAdCAM expressed on cells (human, UniProt Q13477 19-382)
T2 construct: whole, on cells
T2 sequence (looked up): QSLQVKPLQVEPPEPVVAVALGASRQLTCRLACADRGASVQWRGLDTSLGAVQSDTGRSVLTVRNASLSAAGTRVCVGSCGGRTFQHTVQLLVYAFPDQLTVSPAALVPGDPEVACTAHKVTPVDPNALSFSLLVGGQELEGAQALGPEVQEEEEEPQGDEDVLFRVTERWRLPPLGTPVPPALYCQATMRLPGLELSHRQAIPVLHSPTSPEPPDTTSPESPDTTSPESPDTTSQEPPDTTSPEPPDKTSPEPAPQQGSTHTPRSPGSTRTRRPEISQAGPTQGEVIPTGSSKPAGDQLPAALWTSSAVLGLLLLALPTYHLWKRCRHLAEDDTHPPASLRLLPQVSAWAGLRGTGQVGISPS

T3: recombinant mouse MAdCAM-1 (mouse, UniProt Q61826 22-364, limits assumed)
T3 construct: also called mMAdCAM-1
T3 sequence (looked up): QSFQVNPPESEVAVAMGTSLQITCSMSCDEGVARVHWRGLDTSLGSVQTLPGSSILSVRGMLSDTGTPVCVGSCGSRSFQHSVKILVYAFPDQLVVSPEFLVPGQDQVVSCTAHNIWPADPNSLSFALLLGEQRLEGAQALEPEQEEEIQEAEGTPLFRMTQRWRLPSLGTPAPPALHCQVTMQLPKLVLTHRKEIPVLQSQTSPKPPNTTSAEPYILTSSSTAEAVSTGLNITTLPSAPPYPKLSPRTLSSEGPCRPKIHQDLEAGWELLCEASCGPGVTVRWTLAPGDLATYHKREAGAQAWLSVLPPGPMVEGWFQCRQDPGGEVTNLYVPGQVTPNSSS

T4: human MAdCAM protein (human, UniProt Q13477 19-317, limits assumed)
T4 construct: also called soluble monomeric human MAdCAM; recombinant human MAdCAM
T4 sequence (looked up): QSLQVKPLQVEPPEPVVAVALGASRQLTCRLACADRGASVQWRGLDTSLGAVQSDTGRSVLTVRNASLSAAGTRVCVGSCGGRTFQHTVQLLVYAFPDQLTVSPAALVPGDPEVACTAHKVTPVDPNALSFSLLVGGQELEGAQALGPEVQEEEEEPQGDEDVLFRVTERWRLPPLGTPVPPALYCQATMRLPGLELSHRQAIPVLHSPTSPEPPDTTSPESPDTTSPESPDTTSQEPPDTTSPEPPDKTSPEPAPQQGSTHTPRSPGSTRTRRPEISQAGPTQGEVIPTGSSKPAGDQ

B1: MAdCAM Antibody Table 2 clone 20 (antibody, V domains shown)
VH: EVQLLESGGGLVQPGGSLRLSCAASGFTFSDSAMHWVRQAPGKGLEWVSAISGSGSTIYYADSVKGRFTISRDNSKNTLYLQMNSLRAEDTAVYYCVSDIAVAGHWYFDLWGRGTLVTVSS
VL: DIQMTQSPSSLSASVGDRVTITCRASQSISTFLNWYQQKPGKAPKLLIYAASRLEGGVPSRFSGSGSGTDFTLTISSLQPEDFATYYCQQANSFPLTFGPGTKVDIK
notes: IgG format
B2: MAdCAM Antibody Table 2 clone 24 (antibody, V domains shown)
VH: EVQLVESGGGLVKPGGSLRLSCAASGFTFSSYWMSWVRQAPGKGLEWVSRISSDGRITTYAAPVKGRFTISRDDSKNTLYLQMNSLKTEDTAVYYCARGTSYCTGGVCDIDYWGQGTLVTVSS
VL: B1 VL with S30G, T31R, F32N, A50S, R53N, E55Q, G56S, A91S, N92Y, F94I
notes: IgG format
B3: MAdCAM Antibody Table 2 clone 83 (antibody, V domains shown)
VH: EVQLLESGGGLVQPGGSLRLSCAASGFTFSSYWMHWVRQAPGKGLEWVAAISYDGKYKDYEDSVKGRFTISRDNSKNTLYLQMNSLRAEDTAVYYCARENKQWLASFDYWGQGTLVTVSS
VL: DIQMTQSPSSLSASVGDRVTITCQASQDISNFVNWYQQKPGKAPKLLIYAANLRSGVPSRFSGSGSGTDFTLTISSLQPEDFATYYCQQANSFPVTFGPGTKVDIK
notes: IgG format
B4: MAdCAM Antibody Table 2 clone 78 (antibody, V domains shown)
VH: QVQLVQSGAEVKKPGSSVKVSCKASGGTFSSYAISWVRQAPGQGLEWMGWMEPHTGNTRYAQKFQGRVTITADESTSTAYMELSSLRSEDTAVYYCAKGGFSWFDPWGQGTLVTVSS
VL: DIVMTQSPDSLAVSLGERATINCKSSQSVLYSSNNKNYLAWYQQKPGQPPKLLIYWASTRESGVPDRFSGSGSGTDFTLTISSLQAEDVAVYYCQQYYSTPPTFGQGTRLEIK
notes: IgG format
B5: MAdCAM Antibody Table 2 clone 76 (antibody, V domains shown)
VH: EVQLLESGGGLVQPGGSLRLSCAASGFTFDDYTMHWVRQAPGKGLEWVSDISGSGGSTYYADSVKGRFTISRDNSKNTLYLQMNSLRAEDTAVYYCAKDVVVAGTPLHFDYWGQGTLVTVSS
VL: DIQMTQSPSSLSASVGDRVTITCQASQDISNYLNWYQQKPGKAPKLLIYAASYLQSGVPSRFSGSGSGTDFTLTISSLQPEDFATYYCQQAHNYPITFGQGTRLEIK
notes: IgG format
B6: MAdCAM Antibody Table 2 clone 84 (antibody, V domains shown)
VH: QVQLVQSGAEVKKPGASVKVSCKASGGTFSSSAISWVRQAPGQGLEWMGWISAYNGYTNYAQKFQGRVTMTRDTSTSTVYMELSSLRSEDTAVYYCASRVHSGGSYPDDYWGQGTLVTVSS
VL: B5 VL with Q27E, D28H, S30Y, Y53S, A91T, H92D, N93S, Y94I, R103K, L104V
notes: IgG format
B7: MAdCAM Antibody Table 2 clone 14 (antibody, V domains shown)
VH: QVQLVQSGAEVKKPGSSVKVSCKASGYTFTNYYMHWVRQAPGQGLEWMGGIIPIVDGVKYAQKFQGRVTITADESTSTAYMELSSLRSEDTAVYYCAKGQFTGNYYYGMDYWGQGTLVTVSS
VL: DIQMTQSPSSLSASVGDRVTITCQANQDISNYLNWYQQKPGKAPKLLIYRASKLEAGVPSRFSGSGSGTDFTLTISSLQPEDFATYYCQQSSEIPYSFGQGTKVEIK
notes: IgG format
B8: MAdCAM Antibody Table 2 clone 8 (antibody, V domains shown)
VH: QVQLVQSGAEVKKPGASVKVSCKASGYTFTGYHIHWVRQAPGQGLEWMGIINPSGGSTIYAQKFQGRVTMTRDTSTSTVYMELSSLRSEDTAVYYCAKDWSSWYLGPFDYWGQGTLVTVSS
VL: DIQMTQSPSSLSASVGDRVTITCRASQNISSSLNWYQQKPGKAPKLLIYAASSLQSGVPSRFSGSGSGTDFTLTISSLQPEDFATYYCQQSYTTPYTFGQGTKVEIK
notes: IgG format
B9: MAdCAM Antibody Table 2 clone 6 (antibody, V domains shown)
VH: EVQLLESGGGLVQPGGSLRLSCAASGFTFNNYAFHWVRQAPGKGLEWVSRINSYGTSTTYADSVKGRFTISRDNSKNTLYLQMNSLRAEDTAVYYCAREGPVAGYWYFDLWGQGTLVTVSS
VL: B8 VL with N28I, S30G, S31T, S32N, N34A, A50G, T93R, T94L, Y96F
notes: IgG format
B10: MAdCAM Antibody Table 2 clone 82 (antibody, V domains shown)
VH: QVQLVQSGAEVKKPGASVKVSCKASGYTFTRHWIHWVRQAPGQGLEWMGWINVKTGGAGYAQKFQGRVTMTRDTSTSTVYMELSSLRSEDTAVYYCARESSGWYGTDVWGQGTTVTVSS
VL: B8 VL with V19A, N28S, S31N, S32Y, N34A, Y92N, T93S, T94F, Y96L, Q100G
notes: IgG format
B11: MAdCAM Antibody Table 2 clone 17 (antibody, V domains shown)
VH: QVQLVQSGAEVKKPGSSVKVSCKASGYTFTDYHIHWVRQAPGQGLEWMGGIVPRSGSTTYAQKFQGRVTITADESTSTAYMELSSLRSEDTAVYYCAKDESSGWYYFDYWGQGTLVTVSS
VL: DIVMTQSPLSLPVTPGEPASISCRSSQSLLHSNGYNYLDWYLQKPGQSPQLLIYSAYNRASGVPDRFSGSGSGTDFTLKISRVEAEDVGVYYCMQALQTPLTFGQGTKVEIK
notes: IgG format
B12: MAdCAM Antibody Table 2 clone 7 (antibody, V domains shown)
VH: EVQLLESGGGLVQPGGSLRLSCAASGFTFSDYQMSWVRQAPGKGLEWVAIISHADGGFKDYADSVKGRFTISRDNSKNTLYLQMNSLRAEDTAVYYCAKPYSSGWSAVYYFDYWGQGTLVTVSS
VL: DIQMTQSPSSLSASVGDRVTITCRASRGITNDLGWYQQKPGKAPKLLIYAASTLQSGVPSRFSGSGSGTDFTLTISSLQPEDFATYYCQQAYSFPWTFGQGTKVEIK
notes: IgG format
B13: MAdCAM Antibody Table 2 clone 11 (antibody, V domains shown)
VH: EVQLLESGGGLVQPGGSLRLSCAASGFTFSDYYMNWVRQAPGKGLEWVSVIGESGGSTYYADSVKGRFTISRDNSKNTLYLQMNSLRAEDTAVYYCAADPVSRWPKHGGGDYWGQGTLVTVSS
VL: B8 VL with N28G, N34A, S53T, T93S, Y96W
notes: IgG format
B14: MAdCAM Antibody Table 2 clone 28 (antibody, V domains shown)
VH: EVQLLESGGGLVQPGGSLRLSCAASGFTFSSYAMSWVRQAPGKGLEWVSYISSSSTYTNYADSVKGRFTISRDNSKNTLYLQMNSLRAEDTAVYYCARANSSSWYDWYFDLWGQGTLVTVSS
VL: not shown
notes: IgG format
B15: MAdCAM Antibody Table 2 clone 29 (antibody, V domains shown)
VH: B14 VH with A33Q
VL: not shown
notes: IgG format

target: T1, mouse MAdCAM expressed on cells; experiment: cell binding

| Binder | binding result |
| --- | --- |
| B1 | no binding |
| B2 | no binding |
| B3 | binds |
| B4 | binds |
| B5 | binds |
| B6 | binds |
| B7 | no binding |
| B8 | binds |
| B9 | no binding |
| B10 | binds |
| B11 | no binding |
| B12 | binds |
| B13 | binds |
| B14 | no binding |
| B15 | no binding |

target: T2, human MAdCAM expressed on cells; experiment: cell binding

| Binder | binding result |
| --- | --- |
| B1 | binds |
| B2 | binds |
| B3 | binds |
| B4 | binds |
| B5 | binds |
| B6 | binds |
| B8 | binds |
| B10 | binds |
| B11 | binds |
| B12 | binds |
| B13 | binds |

target: T3, recombinant mouse MAdCAM-1; experiment: Octet

| Binder | binding result |
| --- | --- |
| B1 | no binding |
| B2 | no binding |
| B7 | no binding |
| B8 | binds |
| B9 | no binding |
| B11 | no binding |
| B12 | binds |
| B13 | binds |
| B14 | no binding |
| B15 | no binding |

target: T4, human MAdCAM protein; experiment: Octet

| Binder | binding result |
| --- | --- |
| B1 | binds |
| B3 | binds |
| B4 | binds |
| B5 | binds |
| B6 | binds |
| B10 | binds |
| B11 | binds |
| B13 | binds |
